Where “and” joins values, the source holds several entries; their conditions need not be identical. Identical values can stand only once.
How the values were obtained:
Assay in all cases: purified protein, by the assay type
Settings in all cases: other: pH 7.4, 20 μM (S)-adenosyl methionine
[1] = substrate: c1cc(Cc2cnc[nH]2)ccn1
[2] = substrate: NCCc1c[nH]cn1
[3] = substrate: C[C@@H](N)Cc1c[nH]cn1

B1: human HMT (Homo sapiens) (protein)
chain: MASSMRSLFSDHGKYVESFRRFLNHSTEHQCMQEFMDKKLPGIIGRIGDTKSEIKILSIGGGAGEIDLQILSKVQAQYPGVCINNEVVEPSAEQIAKYKELVAKTSNLENVKFAWHKETSSEYQSRMLEKKELQKWDFIHMIQMLYYVKDIPATLKFFHSLLGTNAKMLIIVVSGSSGWDKLWKKYGSRFPQDDLCQYITSDDLTQMLDNLGLKYECYDLLSTMDISDCFIDGNENGDLLWDFLTETCNFNATAPPDLRAELGKDLQEPEFSAKKEGKVLFNNTLSFIVIEA
In the case of B1, the Vmax [1] is reported as 0.004 µM/min and 0.003 µM/min, the Vmax/Km [1] is reported as 0.0011 min⁻¹ and 0.0012 min⁻¹ and the Km [2] is reported as 3.93 µM. For the same protein, the Vmax [2] was 0.19 µM/min, the Vmax/Km [2] was 0.048 min⁻¹ and the Km [3] was 16.26 µM. The Vmax [3] was 0.56 µM/min and the Vmax/Km [3] was 0.034 min⁻¹.
